Reference: patent publication US20200200749A1 (published 2020)
Read-outs that look alike come from different tables or passages of the source.

B1: 324 (antibody, V domains shown)
VH: QVQLVQSGAEVKKPGASVKVSCKTSGYTFTSFEIHWVRQGSGQGLEWMGRMNPKSGDTVSAQKFQGRVTLTRDTSINAAYMELGSLSSEDTAVYYCARGPHVGEVVPGLMAGTYYFPLDVWGQGTLVTVSS
VL: DIQMTQSPSTLSASIGDRVTITCRASQSISRWLAWYQQKPGKAPKLLIYKVSDLQSGVPSRFSGSGYGTEFTLTIGSLQPDDLATYYCQQYDTYPWTFGQGTKLEIK
B2: 87 (antibody, V domains shown)
VH: QVQLVQSGAEVKRPGASVKVSCKASGYTFTSYAISWVRQAPGQGLEWMGWISGNNGNTNYAQKLQGRLTMTTDTSTSTAYMELRSLRSDDTAVYYCARDADIVVVVGATGTYYYGMDVWGQGTLVTVSS
VL: DIVMTQSPSTLSASVGDRVTITCRASQSISSWLAWYQQKPGKAPKLLIYDASSLESGVPSRFSGSGSGTEFTLTISSLQPDDFATYYCQQYKSSLRTFGQGTQLEIK
B3: EBOV87 (antibody, V domains shown)
VH: B2 VH
VL: B2 VL
B4: 49 (antibody, V domains shown)
VH: EVQLVESGGGLVQPGGSLRLSCAASGFTFSSYEINWVRQAPGRGLEWVSYISSSGRTIYYADSVKGRFTISRDNAKNSLYLQMNSLRAEDTAVYYCAREPYVDGILYGAGDSYFDYWGQGTLVTVSS
VL: DIQMTQSPSSLSASVGDRVTITCRASQSISNYLNWYQQKPGKAPKVLIYAASSLQSGVSSRFSGSGSGTDFTLTISSLQPEDFATYFCQQSYNTPPVTFGQGTRLEIK
B5: EBOV49 (antibody, V domains shown)
VH: B4 VH
VL: B4 VL
B6: 270 (antibody, V domains shown)
VH: QVQLQESGPGLVKPSQTLSLTCTVSGASISRGLYYWSWIRQPAGKGLEWIGRIYTSGSINYNPSLKSRVTISVDTSKNQFSLRLSSVIATDTAVYYCVRDAPWGDFLTGYFGFYGMDVWGQGTLVTVSS
VL: DIVMTQSPSSLSASVGDRVTITCRASQSINTYLNWYQQKPGKAPKFLIYAASSLHSGVPSRFSGSGSGTDFTLTINSLQPDDFATYYCQQSFTTPYTFGQGTKLEIK
B7: 223 (antibody, V domains shown)
VH: QVQLQQWGAGLLKPSETLSLTCAVYGGSFTTTYWNWIRQPPGKGLEWIGEVNYSGNANYNPSLKGRVAISVDTSKNQFSLRLNSVTAADTAIYYCTSRIRSHIAYSWKGDVWGKGTTVTVSS
VL: EIVMTQSPGTLSLSPGERATLSCRASQSVPRNYIGWFQQKPGQAPRLLIYGASSRAAGFPDRFSGSGSGTDFTLTITRLEPEDFAMYYCHQYDRLPYTFGQGTKLEIK
B8: 52 (antibody, V domains shown)
VH: QVQLQESGPGLVKPSETLSLNCTVSGGSISSYYWSWIRQPPGKGLEWIGYIYDSGRTKYNPSLKSRVTISLDTSKNQFSLKLSSVTAADTAVYYCASLGPFDKLWFGELLPGWFDPWGQGTLVTVSS
VL: EIVLTQSPATLSLSPGGRATLSCRASQSVHNYLAWYQQKSGQAPRLLIYDASNRATGIPARFSGSGSGTDFTLTISSLEPDDFAVYYCQHRSNWLTFGGGTKVEIK
B9: EBOV52 (antibody, V domains shown)
VH: B8 VH
VL: B8 VL
B10: EBOV62 (antibody, V domains shown)
VH: EVQLVESGGGLVQPGGSLRLSCAASGFTFSSYWMSWVRQAPGKGLEWVANIKQDGSAKYYVDSVKGRFTISRDNAKNSLYLQMNSLRAEDTAVYYCARDGLLGISDLLYPIYYFDYWGQGTLVTVSS
VL: DIVMTQSPSSLSASVGDRVTITCRASQNIGSYLNWYQQKPGKAPNLLMYAASSLQSGVPSRFSGSGSGTDFTLTITSLQPEDFATYYCQQSYSIPRTFGQGTQLEIK
B11: 62 (antibody, V domains shown)
VH: B10 VH
VL: B10 VL
B12: EBOV63 (antibody, V domains shown)
VH: EVQLVESGGGLVKPGGSLRLSCAASGFTLNFYNMNWVRQAPGKGLEWVSSISSSSNYIYYADSVKGRFTISRDNARKSLYLQMNSLRAEDTAVYYCARDFVQLLIPQRDEWQGVHDYYGMDVWGQGTLVTVSS
VL: EIVLTQSPGTLSLSPGGRATLSCRASQSVSNSYLAWYQQKPGQAPRLLIYGASSRATGIPDRFSGSGSGTDFILTISRLEPEDFAVYYCQHYGSSQLTFGGGTKVEIK
B13: 63 (antibody, V domains shown)
VH: B12 VH
VL: B12 VL
B14: 289 (antibody, V domains shown)
VH: QVQLVQSGAEVKKPGSSVKVSCKASGATFGSDTVTWVRQAPGQGLEWMGGIIPFFGEANYAQRFQGRVTITADKSTNTAYMELSSLRSEDTAVYFCARQINEMATFGEIHYYTYMDVWGQGTLVTVSS
VL: GSELTQDPAVSVALGQTVRITCQGDSLRNYYASWYQQKPRQAPVLVFYGKNNRPSGIPDRFSGSSSGNTASLTISGAQAEDEADYYCNSRDSSSNHLVFGGGTKLTVLS

Columns and labels:
Experiment in all cases: ELISA
[1] = biological target: T1, BDBV GP (BDBV (Bundibugyo ebolavirus))
[2] = biological target: MARV GP
[3] = biological target: BDBV sGP (BDBV (Bundibugyo ebolavirus))
[4] = biological target: T1, BDBV GP; remark: listed apart in the source
[5] = biological target: MARV GP; remark: listed apart in the source
[6] = biological target: T2, EBOV GP (recombinant, full-length extracellular domain) (EBOV (Ebola Zaire), UniProt Q05320 33-650)
T2 chain: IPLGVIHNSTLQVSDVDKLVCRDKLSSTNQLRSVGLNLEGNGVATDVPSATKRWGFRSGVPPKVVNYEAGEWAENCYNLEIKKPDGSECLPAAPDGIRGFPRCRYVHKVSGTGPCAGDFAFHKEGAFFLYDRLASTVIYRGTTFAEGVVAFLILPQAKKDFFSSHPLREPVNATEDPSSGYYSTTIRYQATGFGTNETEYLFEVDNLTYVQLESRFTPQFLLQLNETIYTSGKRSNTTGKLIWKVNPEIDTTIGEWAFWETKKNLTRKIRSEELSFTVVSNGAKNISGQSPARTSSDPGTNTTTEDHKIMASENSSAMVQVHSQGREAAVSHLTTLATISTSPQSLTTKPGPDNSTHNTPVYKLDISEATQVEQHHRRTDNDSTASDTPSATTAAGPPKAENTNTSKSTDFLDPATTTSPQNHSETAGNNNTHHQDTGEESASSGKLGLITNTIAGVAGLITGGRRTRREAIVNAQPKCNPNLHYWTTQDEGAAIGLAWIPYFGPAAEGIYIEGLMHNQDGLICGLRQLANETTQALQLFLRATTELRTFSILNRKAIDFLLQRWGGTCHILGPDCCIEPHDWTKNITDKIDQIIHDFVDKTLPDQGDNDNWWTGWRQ

[7] = biological target: T3, EBOV sGP (EBOV (Ebola Zaire), UniProt P60170 33-324)
T3 chain: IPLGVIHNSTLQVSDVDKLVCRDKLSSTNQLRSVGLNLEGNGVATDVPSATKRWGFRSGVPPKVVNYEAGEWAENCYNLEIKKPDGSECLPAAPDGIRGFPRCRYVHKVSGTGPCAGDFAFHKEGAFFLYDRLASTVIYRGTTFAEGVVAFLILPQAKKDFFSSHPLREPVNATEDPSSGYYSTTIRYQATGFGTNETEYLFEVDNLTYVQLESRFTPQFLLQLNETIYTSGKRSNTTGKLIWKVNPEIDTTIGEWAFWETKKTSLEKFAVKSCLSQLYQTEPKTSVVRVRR

[8] = biological target: T4, SUDV GP (recombinant) (SUDV (Sudan ebolavirus), UniProt Q66814 33-650)
T4 chain: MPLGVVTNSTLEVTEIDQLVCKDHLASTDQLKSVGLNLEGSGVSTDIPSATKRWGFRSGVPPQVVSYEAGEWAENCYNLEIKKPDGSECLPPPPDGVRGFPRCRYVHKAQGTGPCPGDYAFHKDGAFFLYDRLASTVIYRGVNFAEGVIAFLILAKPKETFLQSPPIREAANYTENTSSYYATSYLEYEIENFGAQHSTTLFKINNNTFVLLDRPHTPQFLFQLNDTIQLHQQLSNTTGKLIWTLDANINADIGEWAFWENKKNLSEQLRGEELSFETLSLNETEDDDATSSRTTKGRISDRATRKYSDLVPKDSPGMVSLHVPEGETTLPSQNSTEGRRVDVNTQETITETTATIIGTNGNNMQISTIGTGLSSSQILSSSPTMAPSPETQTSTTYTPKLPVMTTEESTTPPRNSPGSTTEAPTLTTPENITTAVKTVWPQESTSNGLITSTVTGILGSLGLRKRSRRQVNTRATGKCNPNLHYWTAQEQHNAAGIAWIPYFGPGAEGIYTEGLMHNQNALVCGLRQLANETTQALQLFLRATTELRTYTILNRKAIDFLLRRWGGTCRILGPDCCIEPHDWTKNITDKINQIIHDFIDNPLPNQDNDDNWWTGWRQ

Binder | EC50 [4] [µg/mL] | EC50 [5] [µg/mL] | EC50 [6] [µg/mL] | EC50 [7] [µg/mL] | EC50 [8] [µg/mL] | other results
B1 |  |  |  |  |  | EC50 [1]: 0.053 µg/mL; EC50 [2]: > 10 µg/mL; EC50 [3]: 0.012 µg/mL
B2 | 1.39 | > 10 |  |  |  | 
B3 |  |  | 0.724 | 0.051 | 0.629 | 
B4 | > 10 | > 10 |  |  |  | 
B5 |  |  | 0.262 | 0.061 | > 10 | 
B6 |  |  |  |  |  | EC50 [1]: 0.154 µg/mL; EC50 [2]: > 10 µg/mL; EC50 [3]: 0.025 µg/mL
B7 |  |  |  |  |  | EC50 [1]: 0.022 µg/mL; EC50 [2]: > 10 µg/mL; EC50 [3]: > 10 µg/mL
B8 | 1.84 | > 10 |  |  |  | 
B9 |  |  | 0.712 | 0.082 | > 10 | 
B10 |  |  | 0.228 | 0.051 | > 10 | 
B11 | 0.508 | > 10 |  |  |  | 
B12 |  |  | 0.283 | 0.038 | > 10 | 
B13 | > 10 | > 10 |  |  |  | 
B14 |  |  |  |  |  | EC50 [1]: 0.02 µg/mL; EC50 [2]: > 10 µg/mL; EC50 [3]: 0.006 µg/mL
